Assay results taken from patent publication US6512102B1, “Compositions and methods of diagnosis and treatment using casein kinase I” (Chiron Corporation, priority 1998, dated 2003).
Where two headings read alike, the source gives them in different places.

Tests used:
Arm (β-catenin) = Arm (β-catenin) protein level in stable Drosophila Schneider cells, Western blot; type: cell-based
Text: Drosophila Schneider cell lines were derived that stably express CKIε in the presence or absence of Drosophila Sgg (GSK3) protein. CKIε and sgg (GSK3) gene expression were controlled by a metallothionein promoter which is induced by copper. […] In the cells expressing CKIε and Sgg (GSK3), Arm (β-catenin) protein level is reduced.
CKIε was PCR-cloned into a vector pRmHa-3 containing a copper-inducible promoter (metallothionine). It was co-transfected with pMKK3 containing the neo-gene (G418-resistant gene) into Drosophila Schneider cells. G418 was used for selection of a stable cell line. In addition, stable cell lines containing combinations of CKIε+wt sgg, CKIε+Actsgg, CKIKD, CKIKD+DN Sgg were made. Actsgg is a mutant containing a mutation of Ser9 to Ala. To detect stabilized Arm, cells were plated 16 hours before the copper induction and lysed three hours after the copper induction. Western blots were performed with anti-Arm mAb 7A12.

[1] = tested on: Lef-1 dependent transcription; experiment: Lef-1 enhancer luciferase reporter assay in Cos cells; type: cell-based
Protocol: Combinations of Wnt-1, CKIε, CKI kinase dead variant (lys→arg 38) and Lef-1 were transfected into Cos cells with a luciferase gene driven by multiple copies of Lef enhancer elements. As an internal control of transfection efficiency, the β-galactosidase gene driven by the SV40 promoter was co-transfected in all samples. 24 hours after transfection, cells were lysed and the lysate was tested for luciferase activity. The luciferase activity was normalized with respect to β-galactosidase activity. […] Dorsoanterior index (DAI) grade numbers were assigned to the phenotypes of the embryos. A grade 5 embryo is normal; a grade 3 embryo is cyclopic (one eye); a grade 1 embryo has a tail fin and somites but no head (acephalic); and a grade 0 embryo has no dorsoanterior structures (Kao et al., 1988).
The effect of CKI on Lef-1 dependent transcription in Cos mammalian cells was examined. A luciferase reporter gene driven by multiple copies of the Lef-I enhancer sequence was used. When only Wnt-I or lef-I or CKIε was transfected with the reporter construct, luciferase activity was induced only 2 to 3 fold (FIG. 1A). When Lef-1 was cotransfected with either Wnt-1 or CKIε, luciferase activity was induced 30 or 12 fold respectively.
Luciferase reporter plasmid contains multiple Lef-I enhancer sites upstream of the fos basal promoter. Various DNA plasmids encoding Wnt-1, CKIε , Dvl-1, GSK3 etc. were co-transfected with a luciferase reporter plasmid and a SV40 β-galactosidase plasmid into 24-well Cos cell culture. For each well, 0.5 μg total DNA was in a ratio of 0.08 μg:016 μg:0.02 μg for signaling molecules:luciferase: β-gal. SV40 β-gal construct was used as an internal transfection control, since β-gal activity is independent of the Wnt-1 signaling molecules. Transfection was done using LT1 (5 μl/μg DNA) (Panvera Co. # MIR23 10). Each sample was transfected in triplex repeats to obtain a statistical value. After 24 hours, cells were washed once with PBS and lysed in 50 μl/well lysis buffer supplied with the luciferase assay kit (Promega cat# EI500). 10 μl of each sample was aliquoted into two sets of tubes, one set for the luciferase assay and another for β-gal chemiluminescent reporter assay (Galacto-Light, TROPIX Inc. #BL100G). The result of the luciferase assay was divided by the corresponding β-gal activity, and then averaged.

GSK3 = experiment: In vitro kinase assay on GSK3; type: biochemical
Text: B) Luciferase activity transduced by Dvl-1 was inhibited by CKI lys→arg 38. […] It was immunoprecipitated using anti-HA antibody and mixed with Immunoprecipitated GSK3.

Wnt pathway = Wnt pathway activation by CKI isoforms (ectopic axis in Xenopus embryos and Lef-1 reporter gene assay); type: cell-based
Protocol: There are seven mammalian CKI isoforms (α, β, γ1−3, δ and ε). All these isoforms contain a conserved serine-threonine kinase domain and various amino terminal and carboxyl terminal domains. CKIε and CKIδ the most closely related isoforms have a longer carboxy terminus compared to the other isoforms. […] The activation of the Wnt pathway was analyzed by induction of ectopic axis in Xenopus embryos and the Lef-1 reporter gene assay.
Lef-1 reporter assays were carried out as done as described in Sakanaka et al. (1998) Proc Natl Acad Sci USA. 95:3020-3. For example, 293 cells were seeded at 2×10^5 cells/well in 12-well culture plates. Cells were transfected with 0.2 μg of the luciferase reporter gene, 0.02 μg of Lef-1, 0.03 μg of pTK-β-gal as an internal control, the indicated amount of CKIε, Axin or Wnt-1 cDNA, and pcDNA3.1 vector to a total amount of 0.4 μg of plasmids. Transfection was performed by Lipofectamine (Lifetechnologies Inc. #18324012). Luciferase and β-gal activities were measured 48 h after transfection. Relative light units (RLU) were measured with a luminometer (Analytical Luminescence Laboratory, Monolight 2010).

Axin = target: T1, Axin (Homo sapiens, UniProt O15169); experiment: Co-immunoprecipitation with Axin in 293 cells; type: binding; conditions: both molecules co-expressed in 293 cells
T1 construct: expressed in transfected cells; host or cells: 293 cells
T1 sequence (O15169 whole entry, species assumed): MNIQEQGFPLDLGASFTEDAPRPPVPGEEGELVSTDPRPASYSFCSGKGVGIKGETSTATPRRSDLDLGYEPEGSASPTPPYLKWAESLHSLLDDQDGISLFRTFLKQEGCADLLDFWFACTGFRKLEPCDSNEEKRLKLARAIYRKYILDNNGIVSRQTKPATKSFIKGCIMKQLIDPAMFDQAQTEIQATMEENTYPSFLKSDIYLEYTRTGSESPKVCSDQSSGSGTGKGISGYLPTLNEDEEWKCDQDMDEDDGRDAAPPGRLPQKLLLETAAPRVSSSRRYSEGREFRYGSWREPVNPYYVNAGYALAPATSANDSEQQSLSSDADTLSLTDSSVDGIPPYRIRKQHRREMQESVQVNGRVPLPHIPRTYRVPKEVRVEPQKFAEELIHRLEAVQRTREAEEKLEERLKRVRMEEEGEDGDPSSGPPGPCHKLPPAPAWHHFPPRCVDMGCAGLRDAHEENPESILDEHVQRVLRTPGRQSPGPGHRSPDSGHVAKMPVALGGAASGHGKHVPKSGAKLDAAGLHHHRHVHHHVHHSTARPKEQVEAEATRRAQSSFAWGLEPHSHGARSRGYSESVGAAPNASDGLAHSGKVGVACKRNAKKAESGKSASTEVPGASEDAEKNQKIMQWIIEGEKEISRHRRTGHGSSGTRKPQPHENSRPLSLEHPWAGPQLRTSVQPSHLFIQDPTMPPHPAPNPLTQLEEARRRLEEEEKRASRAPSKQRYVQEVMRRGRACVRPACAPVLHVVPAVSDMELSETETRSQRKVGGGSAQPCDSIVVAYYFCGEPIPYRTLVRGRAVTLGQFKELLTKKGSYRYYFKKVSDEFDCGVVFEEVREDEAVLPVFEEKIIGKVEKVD
Protocol: Interaction of CKI with Axin When Axin was expressed in 293 cells, endogenous CKIε was found in the Axin immune-complex.
Cells were washed with PBS and lysed in buffer (20 mM Tris.HCl, pH 7.5/1 mM EDTA/0. 1% Triton X-100/[…]/1 mM phenylmethylsulfonyl fluoride/10 μg/ml each of aprotinin and leupeptin). For immunoprecipitation, cell lysates were incubated with various antibodies for 4 hours at 4° C., then added Dynabeads M-450 Sheep anti-Mouse IgG (Dynal Inc. #110.01). Enhance chemiluminescence reagents (Amersham Pharmacia Biotech) were used for detection of the immunoblots.

B1: CKIε: mouse casein kinase I ε, SEQ ID NO:1, 416 amino acids, 98.9% identical to human CKIε; expressed from transfected cDNA (protein)
chain: MELRVGNKYRLGRKIGSGSFGDIYLGANIASGEEVAIKLECVKTKHPQLHIESKFYKMMQGGVGIPSIKWCGAEGDYNVMVMELLGPSLEDLFNFCSRKFSLKTVLLLADQMISRIEYIHSKNFIHRDVKPDNFLMGLGKKGNLVYIIDFGLAKKYRDARTHQHIPYRENKNLTGTARYASINTHLGIEQSRRDDLESLGYVLMYFNLGSLPWQGLKAATKRQKYERISEKKMSTPIEVLCKGYPSEFSTYLNFCRSLRFDDKPDYSYLRQLFRNLFHRQGFSYDYVFDWNMLKFGAARNPEDVDRERREHEREERMGQLRGSATRALPPGPPTGATANRLRSAAEPVASTPASRIQQTGNTSPRAISRADRERKVSMRLHRGAPANVSSSDLTGRQEVSRLAASQTSVPFDHLGK
modifications: HA tag; Mus Casein Kinase I epsilon
notes: expressed from transfected cDNA
- Arm (β-catenin) protein level (Arm (β-catenin); cells expressing CKIε, copper induction): significantly higher than background
- induction of transcription ([1]; Wnt-I and CKI without lef-I): did not induce the transcription
- luciferase activity induced ([1]; cotransfected with Lef-1, Cos cells): 12 fold
- phosphorylation of GSK3 (GSK3; in vitro): phosphorylated purified GSK3 protein as well as immunoprecipitated GSK3 protein
- activation of the Wnt pathway (Wnt pathway): activate the Wnt pathway

B2: Sgg: Drosophila Sgg (GSK3) protein, copper-inducible expression (protein, UniProt P18431 1-514, looked up)
Protein kinase shaggy: MSGRPRTSSFAEGNKQSPSLVLGGVKTCSRDGSKITTVVATPGQGTDRVQEVSYTDTKVIGNGSFGVVFQAKLCDTGELVAIKKVLQDRRFKNRELQIMRKLEHCNIVKLLYFFYSSGEKRDEVFLNLVLEYIPETVYKVARQYAKTKQTIPINFIRLYMYQLFRSLAYIHSLGICHRDIKPQNLLLDPETAVLKLCDFGSAKQLLHGEPNVSYICSRYYRAPELIFGAINYTTKIDVWSAGCVLAELLLGQPIFPGDSGVDQLVEVIKVLGTPTREQIREMNPNYTEFKFPQIKSHPWQKVFRIRTPTEAINLVSLLLEYTPSARITPLKACAHPFFDELRMEGNHTLPNGRDMPPLFNFTEHELSIQPSLVPQLLPKHLQNASGPGGNRPSAGGAASIAASGSTSVSSTGSGASVEGSAQPQSQGTAAAAGSGSGGATAGTGGASAGGPGSGNNSSSGGASGAPSAVAAGGANAAVAGGAGGGGGAGAATAAATATGAIGATNAGGANVTDS
- Arm (β-catenin) protein level (Arm (β-catenin); cells expressing CKIε and Sgg (GSK3)): reduced

B3: CKIα: casein kinase I α isoform (protein, UniProt P48729 2-337, looked up)
Casein kinase I isoform alpha: ASSSGSKAEFIVGGKYKLVRKIGSGSFGDIYLAINITNGEEVAVKLESQKARHPQLLYESKLYKILQGGVGIPHIRWYGQEKDYNVLVMDLLGPSLEDLFNFCSRRFTMKTVLMLADQMISRIEYVHTKNFIHRDIKPDNFLMGIGRHCNKLFLIDFGLAKKYRDNRTRQHIPYREDKNLTGTARYASINAHLGIEQSRRDDMESLGYVLMYFNRTSLPWQGLKAATKKQKYEKISEKKMSTPVEVLCKGFPAEFAMYLNYCRGLRFEEAPDYMYLRQLFRILFRTLNHQYDYTFDWTMLKQKAAQQAASSSGQGQQAQTPTGKQTDKTKSNMKGF
- activation of the Wnt pathway (Wnt pathway): not the case

B4: CKIδ: casein kinase I δ isoform (protein, UniProt P48730 1-415, looked up)
Casein kinase I isoform delta: MELRVGNRYRLGRKIGSGSFGDIYLGTDIAAGEEVAIKLECVKTKHPQLHIESKIYKMMQGGVGIPTIRWCGAEGDYNVMVMELLGPSLEDLFNFCSRKFSLKTVLLLADQMISRIEYIHSKNFIHRDVKPDNFLMGLGKKGNLVYIIDFGLAKKYRDARTHQHIPYRENKNLTGTARYASINTHLGIEQSRRDDLESLGYVLMYFNLGSLPWQGLKAATKRQKYERISEKKMSTPIEVLCKGYPSEFATYLNFCRSLRFDDKPDYSYLRQLFRNLFHRQGFSYDYVFDWNMLKFGASRAADDAERERRDREERLRHSRNPATRGLPSTASGRLRGTQEVAPPTPLTPTSHTANTSPRPVSGMERERKVSMRLHRGAPVNISSSDLTGRQDTSRMSTSQIPGRVASSGLQSVVHR
- activation of the Wnt pathway (Wnt pathway): activate the Wnt pathway

B5: CKIεΔ: truncated CKIε mutant where the C-terminus was deleted (protein)
chain: MELRVGNKYRLGRKIGSGSFGDIYLGANIASGEEVAIKLECVKTKHPQLHIESKFYKMMQGGVGIPSIKWCGAEGDYNVMVMELLGPSLEDLFNFCSRKFSLKTVLLLADQMISRIEYIHSKNFIHRDVKPDNFLMGLGKKGNLVYIIDFGLAKKYRDARTHQHIPYRENKNLTGTARYASINTHLGIEQSRRDDLESLGYVLMYFNLGSLPWQGLKAATKRQKYERISEKKMSTPIEVLCKGYPSEFSTYLNFCRSLRFDDKPDYSYLRQLFRNLFHRQGFSYDYVFDWNMLKFGAARNPED
modifications: left off: small tags and cut ends
notes: truncated CKIε mutant where the C-terminus was deleted
- Axin binding (Axin): bound less Axin
- kinase activity of C-terminally truncated mutant (GSK3): intact kinase activity
- kinase activity of C-terminally truncated mutant (GSK3; listed as C-terminally truncated CKIε): has kinase activity
- activation of the Wnt pathway (Wnt pathway): fails to activate the Wnt pathway
